From patent US20200055939A1 (Genentech, published 2020) come the findings set out here.

“And” between values parts separate entries of the source, which are not always exact repeats. Equal values may be shown once. Read-outs that look alike come from different tables or passages of the source.

The target of assay [1] is T1, MICA*004 on HCC1534 cells (human, UniProt Q29983 24-383). In words: cell-based or functional assay.
The target of assay [2] is T2, MILL1-MICA chimera.murine IgG2a Fc fusion (mouse MILL1 with grafted human MICA*008 …).
T2 construct: MICA*008 residues around NGTYQT on the 'back' and in the beta2 microglobulin interface grafted onto murine MILL1; also called MILL1-MICA*008 chimera
In words: ELISA, coated chimera.

Assay [3] has as its target T3, MICA.008.a3.T204-S297.E215N.G243N.H248N.R279N.C-terminal insert of N298.G299.S300.mIgG2a.Glyco4 … (human; mouse, engineered N-linked glycosylation sites E215N, G243N, H248N, R279N and inserted N298).
T3 construct: not shown: murine IgG2a Fc
In words: ELISA, coated variant.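 Also: ELISA with plates coated at 2 ug/ml with MICA*008 alpha 3 glycosylation variants as murine IgG2a Fc fusions, antibody binding detected by HRP anti-human IgG Fc and TMB absorbance.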 For orientation: ELISA stands for enzyme-linked immunosorbent assay.

For assay [4], the target named is T4, MICA.008.a3.R202-S297.R202N mIgG2a.Glyco11 (human; mouse, UniProt Q29983 203-297, engineered N-linked glycosylation site R202N).
T4 construct: not shown: murine IgG2a Fc
T4 chain: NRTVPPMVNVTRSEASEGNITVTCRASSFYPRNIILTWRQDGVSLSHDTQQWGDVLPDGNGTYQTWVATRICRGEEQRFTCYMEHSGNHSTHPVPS
In words: ELISA, coated variant.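 Also: ELISA with plates coated at 2 ug/ml with MICA*008 alpha 3 glycosylation variants as murine IgG2a Fc fusions, antibody binding detected by HRP anti-human IgG Fc and TMB absorbance.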

For assay [5], the target named is T5, MICA.008.a3.T204-S297.E215N.mIgG2a.Glyco12 (human; mouse, UniProt Q29983 204-297, engineered N-linked glycosylation site E215N).
T5 construct: not shown: murine IgG2a Fc
T5 chain: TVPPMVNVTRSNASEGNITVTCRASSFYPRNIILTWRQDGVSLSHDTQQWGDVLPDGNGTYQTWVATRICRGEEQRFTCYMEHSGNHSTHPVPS
In words: ELISA, coated variant.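 Also: ELISA with plates coated at 2 ug/ml with MICA*008 alpha 3 glycosylation variants as murine IgG2a Fc fusions, antibody binding detected by HRP anti-human IgG Fc and TMB absorbance.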

Assay [6] has as its target T6, MICA008.His (human MICA*008 alpha 3 domain, His tagged) (human).
T6 construct: Also used for FPOP (expressed in CHO); also called huMICA*008 alpha 3-his; MICA*008 a3
T6 chain: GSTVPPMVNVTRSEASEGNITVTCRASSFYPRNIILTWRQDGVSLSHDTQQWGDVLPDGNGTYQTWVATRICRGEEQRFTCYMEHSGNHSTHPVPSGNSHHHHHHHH
Put plainly: SPR, antibody captured. (In general: Surface plasmon resonance follows binding to a sensor surface in real time, without labels.)

The target in assay [7] is T7, MICA002.His (human MICA*002 alpha 3 domain, His tagged) (human).
T7 construct: also called huMICA*002 alpha 3-his
T7 chain: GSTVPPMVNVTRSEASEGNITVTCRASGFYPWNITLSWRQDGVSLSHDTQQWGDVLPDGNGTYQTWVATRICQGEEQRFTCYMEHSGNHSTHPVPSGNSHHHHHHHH
Put plainly: SPR, antibody captured.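 Also: SPR with antibody held by surface-bound anti-Fc while His-tagged alpha three domains flow over, Kd derived by fitting a one-to-one binding model to sensograms.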

Assay [8] addresses T8, MICA004.His (human MICA*004 alpha 3 domain, His tagged) (human).
T8 construct: also called huMICA*004 alpha 3-his
T8 chain: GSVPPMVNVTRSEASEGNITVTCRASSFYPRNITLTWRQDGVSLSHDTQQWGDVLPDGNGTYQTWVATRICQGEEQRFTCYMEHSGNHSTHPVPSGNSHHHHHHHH
Put plainly: SPR, antibody captured.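 Also: SPR with antibody held by surface-bound anti-Fc while His-tagged alpha three domains flow over, Kd derived by fitting a one-to-one binding model to sensograms.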

For assay [9], the target named is T9, MICB005.His (human MICB*005 alpha 3 domain, His tagged) (human).
T9 construct: also called huMICB*005 alpha 3-his
T9 chain: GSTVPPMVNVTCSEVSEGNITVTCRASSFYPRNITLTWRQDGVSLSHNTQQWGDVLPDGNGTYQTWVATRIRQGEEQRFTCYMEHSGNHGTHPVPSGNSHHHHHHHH
In words: SPR, antibody captured.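 Also: SPR with antibody held by surface-bound anti-Fc while His-tagged alpha three domains flow over, Kd derived by fitting a one-to-one binding model to sensograms.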

For assay [10], the target named is T1, MICA*004 on HCC1534 cells. Put plainly: cell-based or functional assay. The source holds these as a separate data set.
The target of assay [11] is T10, MICB*005 on HCC1534 cells (human, UniProt Q29980 23-383).
T10 sequence (looked up): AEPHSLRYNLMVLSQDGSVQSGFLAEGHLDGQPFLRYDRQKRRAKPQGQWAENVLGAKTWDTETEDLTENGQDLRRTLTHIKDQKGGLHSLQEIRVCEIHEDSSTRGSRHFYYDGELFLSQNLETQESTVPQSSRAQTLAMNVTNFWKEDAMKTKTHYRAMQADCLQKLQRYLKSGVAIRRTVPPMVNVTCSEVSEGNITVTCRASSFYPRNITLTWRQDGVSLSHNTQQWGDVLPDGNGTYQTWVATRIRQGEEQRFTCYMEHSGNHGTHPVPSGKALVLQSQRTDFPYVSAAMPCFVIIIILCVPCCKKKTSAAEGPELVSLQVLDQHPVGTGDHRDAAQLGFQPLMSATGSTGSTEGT
Put plainly: cell-based or functional assay.

The target of assay [12] is T10, MICB*005 on HCC1534 cells. Put plainly: cell-based or functional assay. This is another data set of the same source.
Assay [13] concerns the target T11, MICA.008.a3.T204-S297.I236T.mIgG2a.Glyco13 (human; mouse, UniProt Q29983 204-297, engineered N-linked glycosylation site created by I236T).
T11 construct: not shown: murine IgG2a Fc
T11 chain: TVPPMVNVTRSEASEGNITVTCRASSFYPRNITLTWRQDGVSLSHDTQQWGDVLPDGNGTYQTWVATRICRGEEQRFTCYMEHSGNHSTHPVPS
Put plainly: ELISA, coated variant.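 Also: ELISA with plates coated at 2 ug/ml with MICA*008 alpha 3 glycosylation variants as murine IgG2a Fc fusions, antibody binding detected by HRP anti-human IgG Fc and TMB absorbance.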

Assay [14] deals with T12, MICA.008.a3.T204-S297.G243N.mIgG2a.Glyco14 (human; mouse, UniProt Q29983 204-297, engineered N-linked glycosylation site G243N).
T12 construct: not shown: murine IgG2a Fc
T12 chain: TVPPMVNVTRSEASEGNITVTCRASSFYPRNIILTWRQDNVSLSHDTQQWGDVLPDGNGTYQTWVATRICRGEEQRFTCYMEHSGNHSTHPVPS
Put plainly: ELISA, coated variant.

Assay [15] concerns the target T13, MICA.008.a3.T204-S297.H248N.mIgG2a.Glyco15 (human; mouse, UniProt Q29983 204-297, engineered N-linked glycosylation site H248N).
T13 construct: not shown: murine IgG2a Fc
T13 chain: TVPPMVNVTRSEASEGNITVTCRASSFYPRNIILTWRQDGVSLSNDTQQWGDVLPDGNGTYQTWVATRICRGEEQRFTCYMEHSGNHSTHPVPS
In words: ELISA, coated variant.

Assay [16] addresses T14, MICA.008.a3.T204-S297.R279N.mIgG2a.Glyco16 (human; mouse, UniProt Q29983 204-297, engineered N-linked glycosylation site R279N).
T14 construct: not shown: murine IgG2a Fc
T14 chain: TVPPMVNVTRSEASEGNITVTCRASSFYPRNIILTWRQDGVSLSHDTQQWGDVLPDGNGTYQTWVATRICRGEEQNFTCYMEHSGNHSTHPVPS
Put plainly: ELISA, coated variant.

For assay [17], the target named is T15, MICA.008.a3.T204-S297.C-terminal insert of N298.G299.S300.mIgG2a.Glyco17 (human; mouse, UniProt Q29983 204-297, engineered N-linked glycosylation site at inserted N298).
T15 construct: not shown: murine IgG2a Fc
T15 chain: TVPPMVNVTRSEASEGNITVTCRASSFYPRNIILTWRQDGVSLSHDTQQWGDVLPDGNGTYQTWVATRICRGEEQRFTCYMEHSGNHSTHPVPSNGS
Put plainly: ELISA, coated variant.

Assay [18] has as its target T16, MICA*008 on MEL-JUSO cells (human, UniProt Q29983 24-317).
T16 chain: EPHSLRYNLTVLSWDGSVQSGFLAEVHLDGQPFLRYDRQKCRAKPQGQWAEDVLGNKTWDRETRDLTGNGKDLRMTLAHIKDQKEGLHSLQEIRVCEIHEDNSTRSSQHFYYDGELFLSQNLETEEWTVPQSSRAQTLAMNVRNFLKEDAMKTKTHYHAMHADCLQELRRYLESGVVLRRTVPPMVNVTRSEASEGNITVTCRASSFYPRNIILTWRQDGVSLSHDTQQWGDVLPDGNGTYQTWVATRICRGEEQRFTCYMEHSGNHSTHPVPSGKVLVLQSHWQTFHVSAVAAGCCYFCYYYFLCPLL
In words: cell-based or functional assay.

In assay [19] the target is T10, MICB*005 on HCC1534 cells. In words: cell-based or functional assay. The source holds these as a separate data set.
The target of assay [20] is T16, MICA*008 on MEL-JUSO cells. Put plainly: cell-based or functional assay.
Assay [21] addresses T1, MICA*004 on HCC1534 cells. In words: cell-based or functional assay. This is another data set of the same source.
For assay [22], the target named is MICA*002 on cells (PANC-1; B16-MICA002) (human, UniProt Q29983 24-383). In words: cell-based or functional assay.
Assay [23] concerns the target T6, MICA008.His (human MICA*008 alpha 3 …). In words: SPR (Biacore), MICA*008 alpha-3 domain.

B1: 6E1.1.12 (antibody, V domains shown)
VH: QGQMQQSGAELVKPGASVKLSCKTSGFTFSDNYISWLKQKPGQSLEWIAWIYAGTGGSSYNQKFRDKAQLTVDTSSRTAYMQLSSLTTEDSAIYYCARHDYYGTSGAWFAYWGRGTLVTVSA
VL: DVLMTQTPLSLPVSLGDQASISCRSSQHIVHSNENTYLEWYLQKPGQSPKLLIYKVSNRFSGVPDRFSGSGSGTDFTLKISRVEAEDLGVYYCFQGSHVPWTFGGGTKVEIK
notes: Mouse hybridoma antibody; constant regions differ by assay
Turning to B1, the “maximum inhibition of shedding” value in [1] was approximately 50%. The binding result in assay [2], in assay [3], in assay [4] and in assay [5] was “binds” each time. Further, the Kd (as a rule, the constant that tells how readily two partners part at equilibrium) was 6.8 nM in assay [6], 2.8 nM in [7], 8.7 nM in assay [8] and 10 nM in assay [9]. Besides, the “EC50 of shedding inhibition” value in assay [10] is 0.265 µg/mL and 0.157 µg/mL; in assay [11], 0.0791 µg/mL; in assay [12] it was 0.0724 µg/mL. The “Max % Inhibition of shedding” value in assay [12] turned out to be 58%.

B2: 2E5.2.3 (antibody, V domains shown)
VH: QGQMQQSGAELVKPGASVKLSCKTSGFTFSDNYISWLKQKPGQSLEWIAWIYAGTGGTSYNQKFTAKAQLTVDTSSSTAYMQFSSLTTEDSAIYYCARHDYYGTSGAWFAYWGQGTLVTVSA
VL: DVLMTQTPLSLPVSLGDQASLSCRSSQNIVHINGNTYLEWYLQKPGQSPKLLIYKVSNRFSGVPDRFSGSGSGTDFTLKISRVEAEDLGVYYCFQGSHVPWTFGGGTKVEIK
notes: as for B1
As for B2, the binding result in assay [2], in assay [3], in assay [4], in assay [5], in [13] and in [14] was “binds” in each case. Besides, the binding result in assay [15], in [16] and in assay [17] was “binds” in each case. In addition, the Kd in assay [6] is 1.8 nM; in assay [7], 0.66 nM; in assay [8], 1.96 nM; in [9], 2.7 nM. For the same molecule, the “EC50 of shedding inhibition” value in assay [18] was 0.195 µg/mL and 0.112 µg/mL; in assay [10] it was 0.107 µg/mL and 0.23 µg/mL; in [11], 0.107 µg/mL. In addition, the “% max inhibition of shedding” value in [11] amounted to 60%.

B3: 1D5 (antibody, V domains shown)
VH: EIQLQQSGPELVKPGASVKVSCKASGYAFTSQNIYWVKQSHGKSLEWIGYIEPYNVVPMYNPKFKGKATLTVDKSSSSAYIHLNSLTSEDSAIYYCARSGSSNFDYWGQGTTLTVSS
VL: EIILTQSPTTMAASPGEKITITCSASSSISSHYLHWYQQKSGFSPKLLIYRTSNLASGVPARFSGSGSGTSYSLTIGTMEAEDVATYYCQQGSSLPLTFGAGTKVEIK
notes: Mouse variable domains; constant regions differ by assay (human IgG1 or mouse IgG2a); also called anti-MIC 1D5
Turning to B3, the “maximum inhibition of shedding” value in [1] is approximately 60%; in [19], approximately 50%. In addition, the binding result in [4], in assay [5], in assay [13], in [15] and in assay [17] was “binds” throughout. Besides, the Kd in [6] was 0.42 nM; in [7] it was 0.67 nM; in [8], 0.49 nM; in [9], 1.09 nM; in [23] it was 0.5 nM. The “% max inhibition of shedding” value in assay [18] was found to be 77%; in assay [10], 81%; in assay [11] it was 54%. Besides, the “EC50 of shedding inhibition” value worked out at 0.0087 µg/mL in assay [18]; 0.0435 µg/mL in [10]; 0.0128 µg/mL in [11]; 0.0207 µg/mL in assay [20]; 0.0136 µg/mL in assay [21]; 0.0386 µg/mL in [12]. The “EC50 of shedding inhibition” value in [22] came out at 0.0342 µg/mL. Moreover, the “Max % Inhibition of shedding” value was 74% in assay [20], 65% in [21], 59% in assay [12] and 48% in assay [22].
